For experiment [1], the target named is T1, captured FAP (sFAP) (Homo sapiens, UniProt Q12884).
T1 sequence (Q12884 1-760): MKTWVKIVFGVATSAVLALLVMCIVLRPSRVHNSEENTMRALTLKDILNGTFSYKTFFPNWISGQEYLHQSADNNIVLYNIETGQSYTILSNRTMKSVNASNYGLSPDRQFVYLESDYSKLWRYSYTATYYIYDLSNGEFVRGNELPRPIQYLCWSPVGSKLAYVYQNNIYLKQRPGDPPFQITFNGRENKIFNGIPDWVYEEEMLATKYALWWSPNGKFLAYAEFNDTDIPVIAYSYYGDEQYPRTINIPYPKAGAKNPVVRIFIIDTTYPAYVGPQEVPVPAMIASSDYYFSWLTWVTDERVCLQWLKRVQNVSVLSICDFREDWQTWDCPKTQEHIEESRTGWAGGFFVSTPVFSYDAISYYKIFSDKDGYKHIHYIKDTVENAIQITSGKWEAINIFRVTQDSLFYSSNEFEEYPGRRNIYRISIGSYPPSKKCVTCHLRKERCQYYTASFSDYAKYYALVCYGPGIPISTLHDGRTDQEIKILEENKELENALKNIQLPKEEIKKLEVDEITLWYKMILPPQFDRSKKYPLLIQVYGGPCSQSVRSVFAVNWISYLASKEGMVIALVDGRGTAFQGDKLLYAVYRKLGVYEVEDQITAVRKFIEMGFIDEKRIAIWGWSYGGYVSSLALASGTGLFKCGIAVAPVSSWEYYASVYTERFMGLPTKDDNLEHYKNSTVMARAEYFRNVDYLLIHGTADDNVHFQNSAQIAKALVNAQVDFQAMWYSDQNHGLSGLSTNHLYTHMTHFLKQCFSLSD
Nature of the experiment: capture ELISA, FAP captured via his-tag with coated anti-His antibody. It counts as binding. The note with it: ELISA, varying antibody concentrations. As to the method: (§1) ELISA assays were performed with varying antibody concentrations to validate the binding of the exemplary antibodies of the present invention to FAP and to be able to determine their half maximal effective concentration (EC50). For the exemplary recombinant human NI-206-18H2, NI-206-20A8, NI-206-6D3, ‘NI-206-14C5, NI-206-34C11, NI-206.82C2, NI-206.59B4, NI-206.22F7, NI-206.27E8, NI-206.12G4 and NI-206.17A6 antibodies, 96-well microplates (Costar, Corning, USA) were coated with FAP, with a mixture of the 3 peptides or with BSA (Sigma-Aldrich, Buchs, Switzerland) diluted to a concentration of 5 μg/ml in carbonate ELISA coating buffer (15 mM Na2CO3, 35 mM NaHCO3, pH 9.4) for the direct ELISA. For the capture ELISA, the microplates were coated with mouse anti-His monoclonal antibody (Clontech) diluted to a concentration of 3 μg/ml in PBS, the plates were then blocked, FAP or BSA were diluted to a concentration of 2 μg/ml in PBS and added to the plates to be captured. The binding efficiency of the antibodies was then tested.
The EC50 values were estimated by a non-linear regression using GraphPad Prism (San Diego, USA) software. […] The binding of NI-206.12G4 towards sFAP was not tested.
In general terms: In an ELISA, binding on a coated surface is turned into a signal by an enzyme label.

Experiment [2] addresses T2, BSA (Bos taurus, UniProt P02769).
T2 construct: purchased Sigma-Aldrich
Nature of the experiment: ELISA control binding to BSA. Also on record: species or system bovine. As to the method: as §1

The target in experiment [3] is T3, recombinant human FAP (sFAP, FAP) versus CD26 and unrelated human antigens (A-N) (Homo sapiens, UniProt Q12884).
T3 sequence (Q12884 26-760 limits assumed): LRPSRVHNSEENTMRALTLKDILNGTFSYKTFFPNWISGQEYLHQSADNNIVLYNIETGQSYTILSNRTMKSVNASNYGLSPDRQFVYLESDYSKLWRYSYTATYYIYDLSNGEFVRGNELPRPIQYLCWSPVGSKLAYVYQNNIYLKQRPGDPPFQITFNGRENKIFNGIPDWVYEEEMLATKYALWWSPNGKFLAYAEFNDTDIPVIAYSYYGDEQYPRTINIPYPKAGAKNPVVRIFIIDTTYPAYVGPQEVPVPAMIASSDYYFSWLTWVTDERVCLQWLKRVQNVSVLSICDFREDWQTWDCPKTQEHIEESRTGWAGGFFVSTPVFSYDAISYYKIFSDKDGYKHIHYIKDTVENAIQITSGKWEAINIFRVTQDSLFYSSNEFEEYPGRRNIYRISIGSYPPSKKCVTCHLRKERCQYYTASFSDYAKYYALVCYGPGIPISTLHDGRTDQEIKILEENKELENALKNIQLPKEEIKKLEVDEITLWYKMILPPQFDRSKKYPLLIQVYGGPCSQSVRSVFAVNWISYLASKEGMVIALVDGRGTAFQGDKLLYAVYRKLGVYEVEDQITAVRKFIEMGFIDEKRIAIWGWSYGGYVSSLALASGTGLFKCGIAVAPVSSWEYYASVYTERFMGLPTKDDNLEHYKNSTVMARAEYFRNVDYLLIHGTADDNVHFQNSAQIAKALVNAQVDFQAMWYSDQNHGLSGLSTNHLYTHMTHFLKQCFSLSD
Nature of the experiment: binding specificity ELISA against FAP versus unrelated human antigens. The note with it: detection antibody at 20, 4 and 0.8 nM. As to the method: A mouse anti-6×-histidine tag antibody (Clonetech) was coated at a concentration of 3 μg/ml in PBS to a 96 well ELISA plate, the plates were then blocked with 5% BSA in PBS, and enzymatically active recombinant human FAP with an N-terminus 6× histidine tag was added to the plates to be captured. The binding efficiency of NI-206.82C2, NI-206.18H2, NI-206.20A8 and NI-206.6D3 (at 20 nM, 4 nM, and 0.8 nM) against sFAP and of NI-206.18H2, NI-206.20A8 and NI-206.6D3 against FAP as well was then tested by 1 hour incubation, followed by washing with PBS and detection with an HRP-labelled goat anti-human antibody (Jackson Immunoresearch) using a colormetric assay. To assess NI-206.82C2, NI-206.18H2, NI-206.20A8 and NI-206.6D3 binding other targets, recombinant human CD26 (only in case of NI-206.82C2) and fourteen other unrelated recombinant human proteins (A-N) were individually added to a 96-well ELISA plate in triplicate, and the binding efficacy of NI-206.82C2 was evaluated. (FIG. 7A to D)

T2 sequence (P02769 25-607): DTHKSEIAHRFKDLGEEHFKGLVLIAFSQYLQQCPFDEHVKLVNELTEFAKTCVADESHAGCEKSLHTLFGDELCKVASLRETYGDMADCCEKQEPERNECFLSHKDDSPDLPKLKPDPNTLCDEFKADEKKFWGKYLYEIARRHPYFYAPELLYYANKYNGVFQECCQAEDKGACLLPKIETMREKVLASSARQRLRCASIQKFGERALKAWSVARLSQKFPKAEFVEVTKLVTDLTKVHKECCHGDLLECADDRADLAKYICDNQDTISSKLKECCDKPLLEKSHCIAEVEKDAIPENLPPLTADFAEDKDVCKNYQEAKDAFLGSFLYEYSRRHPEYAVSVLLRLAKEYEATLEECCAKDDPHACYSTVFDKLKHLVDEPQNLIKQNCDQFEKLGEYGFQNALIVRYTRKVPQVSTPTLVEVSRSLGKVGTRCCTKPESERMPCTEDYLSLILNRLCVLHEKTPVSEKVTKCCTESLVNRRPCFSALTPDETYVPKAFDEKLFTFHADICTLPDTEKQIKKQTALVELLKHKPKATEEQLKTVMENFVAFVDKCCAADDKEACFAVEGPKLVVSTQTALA

B1: NI-206.82C2: human-derived recombinant anti-FAP antibody; VH SEQ ID NO: 2 or 4 (PIMC), VL SEQ ID NO: 6 (antibody, V domains shown)
VH: QVQLQQSGPGLVKPSQTLSLTCAISGDSVSSNSVTWNWIRQSPSRGLEWLGRTYYRSKWYNDYAVSVKGRITINPDTSKNQFYLQLKSVTPEDAAVYYCARDSSILYGDYWGQGTLVTVSS
VL: QAVLTQPSSLSASPGASASLTCTLPSGINVGTYRIFWFQQKPGSPPQYLLSYKSDSDNHQGSGVPSRFSGSKDASANAGILLISGLQSEDEADYYCMIWHSSAWVFGGGTKLTVL
For B1, the “binding to the captured FAP” value in experiment [1] is “specifically and strongly binds”. For the same molecule, the “binding to BSA” value in experiment [2] is “does not bind”. The “colorimetric ELISA signal against FAP versus panel of unrelated human antigens” value in experiment [3] is recorded as “significantly greater”.

B2: NI-206.18H2: human-derived recombinant anti-FAP antibody; VH SEQ ID NO: 41, VL SEQ ID NO: 43 (antibody, listed as Homo sapiens, V domains shown)
VH: QVQLQESGPRLVKPSETLSLTCTVSGYSISNGYYWGWIRQPPGQGLEWIASVWHSGNTYHNPSLKSRVTILVDTLKNQFSLNLKSVTAADTALYYCARSYTRNDVGAFETWGQGTMVTVSS
VL: SYELTQPPSVSVSPGQTARIACSGDELPKRYAYWYQQKSGQAPVLVMYEDTKRPSGIPERLSGSSSGTVTTLTISGAQVEDEADYYCYSTAPSGNHTFVFGTGTRVTVL
Take B2: the “binding to the captured FAP” value in experiment [1] is “specifically, strongly and similarly bind”. In addition, the “binding to BSA” value in experiment [2] is “does not bind”. Besides, the “colorimetric ELISA signal against FAP versus panel of unrelated human antigens” value in experiment [3] is “significantly greater”.

B3: NI-206.6D3: human-derived recombinant anti-FAP antibody; VH SEQ ID NO: 49, VL SEQ ID NO: 51 (antibody, listed as Homo sapiens, V domains shown)
VH: EVQLVESGGGLVKPGESLRLSCAASGFTFSKAWMNWVRQGPGKGLEWVGRVKSKTDGGTTDYAAPVKGRFTISRDDSKDTVFLQMNSLKTEDTAVYYCSIQFIVVGDRGRDDQYMDVWGKGTTVTVSS
VL: SYVLTQPPSVSVSPGQTARITCSGDALPKQYAFWYQQKPGQAPVIMIYKDNQRPSGIPERFSGSSSGTTVTLTISGVQTEDEADYYCQSADSTNTHVVFGGGTKLTVL
Take B3: the “binding to the captured FAP” value in experiment [1] was “strongly and similarly bind”. Further, the “colorimetric ELISA signal against FAP versus panel of unrelated human antigens” value in experiment [3] is “significantly greater”.

The values are drawn from patent US20180022822A1, “NOVEL ANTI-FIBROBLAST ACTIVATION PROTEIN (FAP) BINDING AGENTS AND USES THEREOF” (Mabimmune Diagnostics AG, priority 2016, published 2018).
